Data on 1 molecule can be found in patent publication US7432342B2, “Kinase anchor protein muteins, peptides thereof and related documents” (Sequenom, Inc., priority 2002, dated 2008).

The target in this experiment is T1, RIα-D/D-GFP (Bos taurus, UniProt P00514).
T1 construct: The dimerization/docking (D/D) domain of RIα and full-length RIIα were each fused with green fluorescent protein (GFP); expressed in transfected cells; host or cells: 10T(1/2) cells
Briefly: Co-localization of PKA regulatory domain with mitochondria-targeted AKB domain in 10T(1/2) cells (Example 3). In kind it is cell-based. The following applies: C-terminal 156 residues of D-AKAP2 fused to D-AKAP1 mitochondrial anchoring domain. The text has this:
The 30 amino acid mitochondrial anchoring domain of D-AKAP1 (Chen et al. (1997) J. Biol. Chem., 272:15247-57; and Huang et al. (1997) J. Biol. Chem., 272:8057-8064) was fused to the C-terminal 156 residues of mouse (amino acids 217-372 of SEQ ID NO:55) and human (amino acids 507-662 of SEQ ID NO:64) D-AKAP2, respectively, followed by a Flag-tag and subcloned into pcDNA4 (Invitrogen, Carlsbad, Calif.). The dimerization/docking (D/D) domain of RIα and full-length RIIα were each fused with green fluorescent protein (GFP) and cloned into pEGFPN1 (Clontech, Palo Alto, Calif.). […] The AKB domain was detected by immuno-staining with monoclonal antibodies against the Flag-tag (Kodak, Rochester, N.Y.) followed by rhodamine-conjugated secondary antibody (Jackson Lab, Bar Harbor, Me.). […]
In this assay, the AKB domain within the C-terminal 156 residues of D-AKAP2 from mouse (Val) and human (Ile) was fused to the mitochondrial anchoring domain from D-AKAP1 and tethered to the outer mitochondrial membrane (Chen et al. (1997) J. Biol. Chem., 272:15247-15257; and Huang et al. (1997) J. Biol. Chem., 272:8057-8064). The binding of the AKB domain with the PKA regulatory domains was detected as the co-transfected PKA regulatory domains co-localized to the mitochondria. […]

T1 sequence (P00514 2-135 limits assumed): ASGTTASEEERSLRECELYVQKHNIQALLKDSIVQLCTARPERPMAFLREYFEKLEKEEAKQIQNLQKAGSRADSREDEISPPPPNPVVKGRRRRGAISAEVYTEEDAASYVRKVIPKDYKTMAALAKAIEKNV

B1: Ile (646) variant: D-AKAP2 AKB domain with Ile at amino acid 646 (SEQ ID NO:64), tested as GST fusion or mitochondria-targeted fusion construct (protein, listed as Homo sapiens)
chain: MRGAGPSPRQSPRTLRPDPGPAMSFFRRKVKGKEQEKTSDVKSIKASISVHSPQKSTKNHALLEAAGPSHVAINAISANMDSFSSSRTATLKKQPSHMEAAHFGDLGRSCLDYQTQETKSSLSKTLEQVLHDTIVLPYFIQFMELRRMEHLVKFWLEAESFHSTTWSRIRAHSLNTMKQSSLAEPVSPSKKHETTASFLTDSLDKRLEDSGSAQLFMTHSEGIDLNNRTNSTQNHLLLSQECDSAHSLRLEMARAGTHQVSMETQESSSTLTVASRNSPASPLKELSGKLMKSIEQDAVNTFTKYISPDAAKPIPITEAMRNDIIARICGEDGQVDPNCFVLAQSIVFSAMEQEHFSEFLRSHHFCKYQIEVLTSGTVYLADILFCESALFYFSEYMEKEDAVNILQFWLAADNFQSQLAAKKGQYDGQEAQNDAMILYDKYFSLQATHPLGFDDVVRLEIESNICREGGPLPNCFTTPLRQAWTTMEKVFLPGFLSSNLYYKYLNDLIHSVRGDEFLGGNVSPTAPGSVGPPDESHPGSSDSSASQSSVKKASIKILKNFDEAIIVDAASLDPESLYQRTYAGKMTFGRVSDLGQFIRESEPEPDVRKSKGSMFSQAMKKWVQGNTDEAQEELAWKIAKMIVSDIMQQAQYDQPLEKSTKL
modifications: GST or mitochondria-targeting fusion
With B1, the “targeting of RIα to the mitochondria” value is listed as “decrease in mitochondrial localization”. Also, the “targeting of RIα to the mitochondria” value (listed as lie variant) is recorded as “unable to target RIα”.
